Read-outs that look alike come from different tables or passages of the source.
B1: H4H9780P (antibody, human IgG4 S228P, kappa, V domains shown)
VH: QVQLVESGGGVVQPGRSLRLSCAASGFSFSSFGMHWVRQAPGKGLEWVSVISYDGINTYYTDSVKGRFTISRDNSKNTLYLQMNGLRAEDTALYYCVQGSIGTVFEYWGQGTLVTVSS
VL: DIQMTQSPSSLSASVGDRVTITCRASQGISNYLAWYQQKPGKVPKLLIYAASTLQSGVPSRFGGSGSGTDFTLTISSLQPEDVATYYCQKYTSAPFTFGPGTKVDIKR
notes: Fully human anti-human TrkB agonist antibody, human IgG4 Fc; also called H4H9780P-L1
B2: H4H9814P (antibody, human IgG4 S228P, kappa, V domains shown)
VH: EVQLVESGGGLVQPGGSLKLSCTASGFTFSGSVIHWVRQASGKGLEWIGRIRNKANSYATAYGASVTGRFTISRDDSKNTAYLQMNSLKTEDTAVYYCTFPGVVGRGGFDYWGQGTLVTVSS
VL: DIVMTQSPDSLAVSLGEGATINCMSSQSVLFSSNNKNYLAWYQQKPGQPPKLLFYWASTRESGVPDRFGGSGSGTDFSLTINSLQTEDVAVYYCLQYYSIPWTFGQGTKVEIKR
notes: Fully human anti-human TrkB agonist antibody, human IgG4 Fc; also called H4H9814P-L1
B3: H4H9816P2 (antibody, human IgG4 S228P, kappa, V domains shown)
VH: EVQLVESGGGLVQPGGSLTLSCAASGFNFRDYEMIWVRQTPGKGLEWISYISNSGYTIYYADSVKGRFTISRDNARNSIYLQVNSLRAEDTAVYYCSRRTTMIRGIRAYYYYGLDVWGQGTTVTVSS
VL: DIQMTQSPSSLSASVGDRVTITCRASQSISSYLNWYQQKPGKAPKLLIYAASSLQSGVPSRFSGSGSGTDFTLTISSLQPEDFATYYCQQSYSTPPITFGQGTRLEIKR
notes: Fully human anti-human TrkB agonist antibody, human IgG4 Fc; also called H4H9816P-L1
B4: H1M8037C (antibody, mouse IgG1, kappa, V domains shown)
VH: QVQLVQSGAEVKKPGASVKVSCKASGYTFTNYDIIWVRQAPGQGLEWMGYINPYNDGTKYNEKFKGRVTMTRDTSTSTVYMELSSLRSEDTAVYYCARLLKYRRFRYYAIDYWGQGTTVTVSS
VL: DIQMTQSPSSLSASVGDRVTITCRTSENVYSNLAWYQQKPGKAPKLLIYAASNLQSGVPSRFSGSGSGTDYTFTISSLQPEDIATYYCQHFWGSPFTFGQGTKLEIKR
notes: captured by anti-mFc in SPR; also called Comparator; comparator anti-TrkB monoclonal antibody
B5: M2aM14173N (antibody, mouse IgG2a, kappa, V domains shown)
VH: NVSLVESGGGSVKPGGSLQLSCAASGFTFSSSAMSWIRQTPEMRLEWVATISDRGSYTYYPDSVEGRFTISRDNAKNILYLQMSHLMSEDTAMYYCARGKGEKAYYTAFFAYWGQGSLVTVSA
VL: DIQMTQSPASLSASVGETVTITCRASENIYSYLAWYQQKPGKSPHLLVHNAETLAEGVPSRFSGSGSGPQFSLKINSLQPGDSGTYYCQHHYSSPWTFGGGTKLEIKR
notes: Anti-mouse TrkB antibody from hybridoma, mouse IgG2a Fc; also called surrogate anti-mouse TrkB antibody
B6: M2aM14179N (antibody, mouse IgG2a, kappa, V domains shown)
VH: EVQLQQSGPELVKPGASVKISCKASGYTLTDYYMNWVKQSHGKSLEWIGDINPNNGGTSYNQKFKGKATLTVDKSSSTAYMELRSLTSEDSAVYYCARGAYYSNYFDYWGQGTTLTVSS
VL: DIVMSQSPSSLAVSAGEKVTMSCKSSQSLLNSRTRKNYLAWYQQKPGQSPKLLIYWASTRESGVPDRFTGSGSGTDFTLTISSVQAEDLAVYYCKQSYILFTFGSGTQLEIKR
notes: as for B5

Experiments:
[1] = molecular target: T1, mouse TrkB extracellular domain fused to the transmembrane and cytoplasmic domains of human TrkB, expressed … (mouse; human, UniProt Q16620 431-822, limits assumed); test: cell-based or functional assay
T1 sequence (Q16620 other isoform, or with tags, fused parts or gaps limits assumed, form in doubt): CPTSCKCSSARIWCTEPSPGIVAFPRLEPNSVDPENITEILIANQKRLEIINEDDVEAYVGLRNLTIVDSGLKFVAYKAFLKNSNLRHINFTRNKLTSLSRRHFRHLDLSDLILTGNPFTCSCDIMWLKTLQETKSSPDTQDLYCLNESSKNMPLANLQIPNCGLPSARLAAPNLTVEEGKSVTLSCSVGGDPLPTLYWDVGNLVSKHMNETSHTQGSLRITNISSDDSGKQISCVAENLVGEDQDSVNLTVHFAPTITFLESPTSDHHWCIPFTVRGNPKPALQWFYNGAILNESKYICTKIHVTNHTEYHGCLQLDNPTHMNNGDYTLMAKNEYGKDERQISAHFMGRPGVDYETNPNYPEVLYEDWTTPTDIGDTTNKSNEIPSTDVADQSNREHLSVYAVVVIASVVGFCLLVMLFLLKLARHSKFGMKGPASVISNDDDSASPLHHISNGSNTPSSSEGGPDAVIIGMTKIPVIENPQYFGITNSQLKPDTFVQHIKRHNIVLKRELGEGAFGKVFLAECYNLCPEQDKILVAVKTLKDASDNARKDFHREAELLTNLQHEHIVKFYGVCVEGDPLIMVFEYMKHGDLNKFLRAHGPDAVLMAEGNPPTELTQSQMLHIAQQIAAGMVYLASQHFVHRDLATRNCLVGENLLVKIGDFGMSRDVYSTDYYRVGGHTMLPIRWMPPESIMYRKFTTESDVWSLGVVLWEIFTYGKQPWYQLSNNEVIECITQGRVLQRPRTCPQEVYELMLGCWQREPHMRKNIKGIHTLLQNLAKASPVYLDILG

[2] = molecular target: T2, mouse TrkB extracellular domain expressed with a C-terminal myc-myc-hexahistidine tag (mouse, UniProt P15209 32-429); test: SPR, mAb captured (anti-hFc), 25C
T2 construct: also called mTrkB.mmH; mTRKB.mmH
T2 sequence (P15209 other isoform, or with tags, fused parts or gaps): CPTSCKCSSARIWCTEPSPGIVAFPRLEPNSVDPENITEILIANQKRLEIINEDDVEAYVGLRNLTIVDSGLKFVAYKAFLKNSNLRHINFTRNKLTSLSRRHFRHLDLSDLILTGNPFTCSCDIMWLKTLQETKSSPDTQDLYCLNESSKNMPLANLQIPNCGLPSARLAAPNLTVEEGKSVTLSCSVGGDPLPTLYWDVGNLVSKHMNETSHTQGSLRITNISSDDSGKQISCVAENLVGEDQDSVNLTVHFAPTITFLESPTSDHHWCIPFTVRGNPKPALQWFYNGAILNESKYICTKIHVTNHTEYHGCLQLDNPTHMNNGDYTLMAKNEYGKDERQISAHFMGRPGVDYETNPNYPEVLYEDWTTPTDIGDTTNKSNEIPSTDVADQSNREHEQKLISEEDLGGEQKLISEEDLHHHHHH
Procedure: (§1) Equilibrium dissociation constants (KD values) for TrkB binding to purified anti-TrkB monoclonal antibodies were determined using a real-time surface plasmon resonance biosensor using a Biacore 4000 instrument. All binding studies were performed in 10 mM Hepes pH 7.4, 150 mM NaCl, 3 mM EDTA, and 0.05% v/v Surfactant Tween-20 (HBS-ET running buffer) at 25° C. and 37° C. […] Binding studies were performed on following TrkB reagents; human TrkB extracellular domain expressed with a C-terminal myc-myc-hexahistidine tag (hTRKB.mmH; SEQ ID NO: 76; Accession number NP_001018074.1), mouse TrkB extracellular domain expressed with a C-terminal myc-myc-hexahistidine tag (mTRKB.mmH; SEQ ID NO: 79; Accession number NP_001020245), rat TrkB extracellular domain expressed with a C-terminal myc-myc-hexahistidine tag (rTRKB.mmH; SEQ ID NO: 84; Accession number NP_036863.1), and human TrkB extracellular domain expressed with a C-terminal mouse IgG2a Fc tag (hTrkB-mFc; SEQ ID NO: 77; Accession number NP_001018074.1). […] Kinetic association (kₐ) and dissociation (kd) rate constants were determined by fitting the real-time binding sensorgrams to a 1:1 binding model with mass transport limitation using Scrubber 2.0c curve-fitting software. Binding dissociation equilibrium constants (KD) and dissociative half-lives (t½) were calculated from the kinetic rate constants as: […]

[3] = molecular target: T3, rat TrkB extracellular domain expressed with a C-terminal myc-myc-hexahistidine tag (rat, UniProt Q63604 32-429); test: SPR, mAb captured (anti-hFc), 25C
T3 construct: also called rTrkB.mmH; rTRKB.mmH
T3 sequence (Q63604 other isoform, or with tags, fused parts or gaps): as the sequence (P15209 other isoform, or with tags, fused parts or gaps) above, with T3M, S9T, A10T, V32I, R63K, S84G, M153T, L185I, S394T counted along it
Procedure: as §1

[4] = molecular target: T4, human TrkB extracellular domain expressed with a C-terminal myc-myc-hexahistidine tag (human, UniProt Q16620 32-430); test: SPR, mAb captured (anti-hFc), 25C
T4 construct: also called hTrkB.mmH; hTRKB.mmH
T4 sequence (Q16620 other isoform, or with tags, fused parts or gaps): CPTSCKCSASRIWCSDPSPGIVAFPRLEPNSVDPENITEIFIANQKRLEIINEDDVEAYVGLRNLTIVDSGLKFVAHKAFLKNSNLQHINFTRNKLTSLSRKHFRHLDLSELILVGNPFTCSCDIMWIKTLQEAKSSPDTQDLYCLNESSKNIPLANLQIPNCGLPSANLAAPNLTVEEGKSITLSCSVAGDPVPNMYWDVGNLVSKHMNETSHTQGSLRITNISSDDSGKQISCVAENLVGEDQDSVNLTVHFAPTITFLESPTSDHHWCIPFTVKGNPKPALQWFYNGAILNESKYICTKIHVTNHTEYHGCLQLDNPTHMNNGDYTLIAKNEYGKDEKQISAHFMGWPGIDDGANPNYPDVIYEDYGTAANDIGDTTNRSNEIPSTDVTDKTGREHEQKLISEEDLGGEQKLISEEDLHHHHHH
Procedure: as §1

[5] = molecular target: T5, human TrkB extracellular domain expressed with a C-terminal mouse IgG2a Fc tag (human); test: SPR, mAb captured (anti-hFc), 25C
T5 construct: also called hTrkB-mFc; hTrkB.mFc
T5 sequence (chain, as listed by the source limits assumed): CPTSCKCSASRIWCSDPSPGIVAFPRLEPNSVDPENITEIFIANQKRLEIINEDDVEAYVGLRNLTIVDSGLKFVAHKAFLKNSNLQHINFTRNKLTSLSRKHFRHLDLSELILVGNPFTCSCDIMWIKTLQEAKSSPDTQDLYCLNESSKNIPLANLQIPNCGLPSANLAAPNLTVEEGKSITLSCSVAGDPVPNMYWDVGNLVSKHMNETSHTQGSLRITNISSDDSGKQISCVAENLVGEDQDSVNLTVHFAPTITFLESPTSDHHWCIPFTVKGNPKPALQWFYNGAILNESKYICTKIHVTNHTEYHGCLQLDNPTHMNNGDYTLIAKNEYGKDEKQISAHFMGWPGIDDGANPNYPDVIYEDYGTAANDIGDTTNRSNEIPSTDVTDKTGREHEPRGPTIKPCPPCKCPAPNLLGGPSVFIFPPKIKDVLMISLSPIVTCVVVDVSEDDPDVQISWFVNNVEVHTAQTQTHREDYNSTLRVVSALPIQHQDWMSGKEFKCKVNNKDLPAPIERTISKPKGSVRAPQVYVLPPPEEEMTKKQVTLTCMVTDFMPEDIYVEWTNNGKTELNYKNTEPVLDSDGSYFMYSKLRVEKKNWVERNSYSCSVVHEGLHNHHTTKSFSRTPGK
Procedure: as §1

[6] = molecular target: T5, human TrkB extracellular domain …; test: BLI Octet, captured hTrkB.mFc, 300 nM mAb, no ligand
Procedure: (§2) Blocking of anti-human TrkB or anti-mouse TrkB antibodies from binding to TrkB by BDNF or NT-4 was evaluated using a real-time bio-layer interferometry (BLI) based Octet HTX instrument. The entire study was performed in 10 mM HEPES pH 7.4, 300 mM NaCl, 3 mM EDTA, 1 mg/mL BSA, 0.02% NaN3 and 0.05% v/v Surfactant Tween-20 (HBS-EBT running buffer) at 25° C. All the samples were dispensed in a 384 tilted well plate and the plate was placed on the orbital shaker with the shake speed of 1000 rpm. hTrkB.mFc was captured on anti-mFc (AMC) Octet sensors while hTrkB.hFc or mTrkB.hFc were captured on anti-hFc (AHC) Octet sensors by dipping in wells containing 10 μg/mL of TrkB reagents for 2 minutes. hTrkB.mFc or hTrkB.hFc captured Octet biosensors were saturated by dipping in wells containing 20 nM of BDNF, hNT-4, or mNT-4 for 2 minutes followed by dipping Octet biosensors in wells containing 300 nM of different TrkB mAbs for 4 minutes. Binding of TrkB mAbs to the complex of TrkB and BDNF, hNT-4, or mNT-4 was determined using Scrubber 2.0c analysis software.

[7] = molecular target: T5, human TrkB extracellular domain …; test: BLI Octet, captured hTrkB.mFc, 300 nM mAb (hNT-4 run)
Procedure: as §2

[8] = molecular target: human TrkB expressed on HEK293/SRE-Luc/hTrkB cells (human, UniProt Q16620 32-822); test: cell-based or functional assay
human TrkB expressed on HEK293/SRE-Luc/hTrkB cells, sequence (Q16620 32-822): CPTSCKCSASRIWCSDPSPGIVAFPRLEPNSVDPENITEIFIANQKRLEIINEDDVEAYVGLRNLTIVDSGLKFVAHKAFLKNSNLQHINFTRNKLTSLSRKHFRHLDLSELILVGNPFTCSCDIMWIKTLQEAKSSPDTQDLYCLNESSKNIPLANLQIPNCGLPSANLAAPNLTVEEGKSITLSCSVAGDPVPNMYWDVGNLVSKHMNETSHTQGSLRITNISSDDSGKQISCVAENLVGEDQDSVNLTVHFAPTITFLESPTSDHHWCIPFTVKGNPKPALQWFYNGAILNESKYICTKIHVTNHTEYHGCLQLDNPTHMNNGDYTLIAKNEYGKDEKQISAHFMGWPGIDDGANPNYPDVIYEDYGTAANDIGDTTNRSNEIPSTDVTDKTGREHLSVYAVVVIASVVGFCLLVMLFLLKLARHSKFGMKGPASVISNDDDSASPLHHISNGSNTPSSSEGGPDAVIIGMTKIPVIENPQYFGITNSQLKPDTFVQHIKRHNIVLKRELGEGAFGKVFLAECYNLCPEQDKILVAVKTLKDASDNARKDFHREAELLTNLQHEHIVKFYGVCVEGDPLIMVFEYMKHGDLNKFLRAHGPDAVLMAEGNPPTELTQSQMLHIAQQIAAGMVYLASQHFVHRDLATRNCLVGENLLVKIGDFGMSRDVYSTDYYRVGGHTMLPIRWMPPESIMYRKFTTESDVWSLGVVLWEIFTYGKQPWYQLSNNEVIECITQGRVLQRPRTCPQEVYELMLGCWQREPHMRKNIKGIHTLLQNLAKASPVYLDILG

[9] = molecular target: T1, mouse TrkB extracellular domain fused …; test: cell-based or functional assay; remark: listed apart in the source
mouse TrkB.hFc [10] = molecular target: T6, mouse TrkB.hFc (mouse); test: BLI Octet, captured mTrkB.hFc, 300 nM mAb (NT-4 run)
T6 construct: also called mTrkB.hFc; mTrkB-hFc
T6 sequence (chain, as listed by the source limits assumed): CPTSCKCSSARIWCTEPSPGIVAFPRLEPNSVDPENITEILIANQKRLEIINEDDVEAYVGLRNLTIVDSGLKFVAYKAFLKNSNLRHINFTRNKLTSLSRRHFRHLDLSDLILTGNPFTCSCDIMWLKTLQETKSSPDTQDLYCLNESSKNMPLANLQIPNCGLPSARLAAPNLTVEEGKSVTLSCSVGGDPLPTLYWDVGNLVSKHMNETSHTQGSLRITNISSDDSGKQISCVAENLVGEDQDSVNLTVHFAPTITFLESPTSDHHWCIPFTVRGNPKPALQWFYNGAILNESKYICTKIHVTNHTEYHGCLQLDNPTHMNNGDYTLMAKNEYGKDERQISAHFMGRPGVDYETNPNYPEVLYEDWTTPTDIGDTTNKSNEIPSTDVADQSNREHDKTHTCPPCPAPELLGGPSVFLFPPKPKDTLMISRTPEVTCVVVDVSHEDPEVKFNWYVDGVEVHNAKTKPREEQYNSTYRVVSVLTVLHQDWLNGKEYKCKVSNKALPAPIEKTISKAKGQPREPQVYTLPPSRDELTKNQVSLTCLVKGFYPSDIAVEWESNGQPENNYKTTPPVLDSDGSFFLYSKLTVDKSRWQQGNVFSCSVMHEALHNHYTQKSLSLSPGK
Procedure: Blocking of BDNF or NT-4 from binding to TrkB by anti-human TrkB or anti-mouse TrkB antibodies was evaluated using a real-time bio-layer interferometry (BLI) based Octet HTX instrument. The entire study was performed in 10 mM HEPES pH 7.4, 300 mM NaCl, 3 mM EDTA, 1 mg/mL BSA, 0.02% NaN3 and 0.05% v/v Surfactant Tween-20 (HBS-EBT running buffer) at 25° C. All the samples were dispensed in a 384 tilted well plate and the plate was placed on the orbital shaker with the shake speed of 1000 rpm. hTrkB.mFc was captured on anti-mFc (AMC) Octet sensors while hTrkB.hFc or mTrkB.hFc were captured on anti-hFc (AHC) Octet sensors by dipping in wells containing 10 μg/mL of TrkB reagents for 2 minutes. hTrkB.mFc or hTrkB.hFc captured Octet biosensors were saturated by dipping in wells containing 300 nM of different TrkB mAbs for 4 minutes followed by dipping Octet biosensors in wells containing 20 nM of BDNF, hNT-4, or mNT-4 for 2 minutes. Binding of BDNF, hNT-4, or mNT-4 to the complex of TrkB and different TrkB mAbs was determined using Scrubber 2.0c analysis software.

mouse TrkB.hFc [11] = molecular target: T6, mouse TrkB.hFc; test: BLI Octet, captured mTrkB.hFc saturated with mNT-4, 300 nM mAb
Procedure: as §2

Binder | Activation (%), SRE-luciferase, 100 pM BDNF [1] | Activation (%), SRE-luciferase, No BDNF [1] | 100 nM mTrkB.mmH Bound (RU) [2] | 100 nM rTrkB.mmH Bound (RU) [3] | 100 nM hTrkB.mmH Bound (RU) [4] | Kd [4] | koff [4] | kon [4] | t½ [4] | 100 nM hTrkB-mFc Bound (RU) [5] | Kd [5] | koff [5] | kon [5] | t½ [5] | antibody Binding (nm) [6] | mAb Binding (nm) [7] | Activation (%), SRE-luciferase, 100 pM BDNF [8] | Activation (%), SRE-luciferase, No BDNF [8] | Activation (%), SRE-luciferase, 100 pM BDNF [9] | Activation (%), SRE-luciferase, No BDNF [9] | other results
B1 | 55% | 0% | -1 RU | -1 RU | 20 RU | 21.7 nM | 0.000867 s⁻¹ | 40000 M⁻¹ s⁻¹ | 13 min | 14 RU | 4.48 nM | 0.000168 s⁻¹ | 37400 M⁻¹ s⁻¹ | 69 min | 0.18 nm | 0.18 nm |  |  |  |  | 
B2 | 54% | 0% | -2 RU | -1 RU | 63 RU | 0.545 nM | 0.000686 s⁻¹ | 1.26e+06 M⁻¹ s⁻¹ | 17 min | 69 RU | 0.0311 nM | 5.95e-05 s⁻¹ | 1.91e+06 M⁻¹ s⁻¹ | 194 min | 0.18 nm | 0.18 nm |  |  |  |  | 
B3 | 58% | 0% | 0 RU | 0 RU | 30 RU | 13.8 nM | 0.000845 s⁻¹ | 61400 M⁻¹ s⁻¹ | 14 min | 25 RU | 1.22 nM | 7.98e-05 s⁻¹ | 65200 M⁻¹ s⁻¹ | 145 min | 0.19 nm | 0.18 nm |  |  |  |  | binding result [2]: no binding (tested: 100 nM)
B4 | 69% | 85% |  |  |  |  |  |  |  |  |  |  |  |  |  |  | 79% | 80% | 69% | 85% | EC50 (M), SRE-luciferase, 100 pM BDNF [1]: 4.2e-11 M; EC50 (M), SRE-luciferase, No BDNF [1]: 4.3e-11 M; EC50 (M), SRE-luciferase, 100 pM BDNF [8]: 1.1e-10 M; EC50 (M), SRE-luciferase, No BDNF [8]: 5.7e-11 M; EC50 (M), SRE-luciferase, 100 pM BDNF [9]: 4.2e-11 M; EC50 (M), SRE-luciferase, No BDNF [9]: 4.3e-11 M; mAb Binding (nm) (mouse TrkB.hFc [10]): 0.4 nm; antibody Binding (nm) (mouse TrkB.hFc [11]): 0.11 nm
B5 |  |  |  |  |  |  |  |  |  |  |  |  |  |  |  |  | 59% | 2% | 74% | 94% | EC50 (M), SRE-luciferase, 100 pM BDNF [9]: 1.7e-11 M; EC50 (M), SRE-luciferase, No BDNF [9]: 3.6e-11 M; mAb Binding (nm) (mouse TrkB.hFc [10]): 0.413 nm; antibody Binding (nm) (mouse TrkB.hFc [11]): 0.4 nm
B6 |  |  |  |  |  |  |  |  |  |  |  |  |  |  |  |  | 52% | 4% | 75% | 87% | EC50 (M), SRE-luciferase, 100 pM BDNF [9]: 2.1e-11 M; EC50 (M), SRE-luciferase, No BDNF [9]: 3.4e-11 M; mAb Binding (nm) (mouse TrkB.hFc [10]): 0.41 nm; antibody Binding (nm) (mouse TrkB.hFc [11]): 0.43 nm

Reference: patent US20190161551A1 (Regeneron, published 2019)
